Laboratory results taken from patent publication US20250026792A1, “SELF-ASSEMBLING PEPTIDES WITH HYALURONIC ACID BINDING DOMAINS AND METHODS OF USE THEREOF” (Northwestern University, priority 2022, published 2025).
Entries after “also recorded” stand apart in the source; their conditions may differ. The star is where a group is joined. Biotin = O=C1N[C@H]2[C@H](CS[C@H]2CCCCC(=O)*)N1

B1: Peptide 10K (peptide)
peptide: Biotin-TKAKIKHSVKLKAKLRIKLVKRI-OH
SMILES: CC[C@H](C)[C@H](NC(=O)[C@H](CCCNC(=N)N)NC(=O)[C@H](CCCCN)NC(=O)[C@@H](NC(=O)[C@H](CC(C)C)NC(=O)[C@H](CCCCN)NC(=O)[C@@H](NC(=O)[C@H](CCCNC(=N)N)NC(=O)[C@H](CC(C)C)NC(=O)[C@H](CCCCN)NC(=O)[C@H](C)NC(=O)[C@H](CCCCN)NC(=O)[C@H](CC(C)C)NC(=O)[C@H](CCCCN)NC(=O)[C@@H](NC(=O)[C@H](CO)NC(=O)[C@H](Cc1c[nH]cn1)NC(=O)[C@H](CCCCN)NC(=O)[C@@H](NC(=O)[C@H](CCCCN)NC(=O)[C@H](C)NC(=O)[C@H](CCCCN)NC(=O)[C@@H](NC(=O)CCCC[C@@H]1SC[C@@H]2NC(=O)N[C@@H]21)[C@@H](C)O)[C@@H](C)CC)C(C)C)[C@@H](C)CC)C(C)C)C(=O)O
notes: 23-residue designed peptide; biotinylated synthetic peptide

Experiments:
[1] = target: T1, collagen type I (Rattus norvegicus, UniProt P02454+P02466); test: ECM specificity binding test, collagen type I coating; settings: 5.0 mg/ml peptide, FIG. 4
T1 construct: purchased Sigma-Aldrich
Procedure: (§1) Peptides were incubated 24 hours at 37° C. on collagens I-IV, elastin, hyaluronic acid, and Geltrex. Coatings (10 pig/cm^2) were previously dried overnight in milli-Q water. Overall significance was assessed using analysis of variance, with Tukey's multiple comparison post-hoc analysis between ECM groups where n=4.
(§2) Biotinylated peptides were custom synthesized by ABI Scientific, Inc. (Sterling, VA). Uranyl acetate and TEM grids were from Ted Pella, Inc (Redding, CA). Unless specified otherwise, all water used in these experiments was Milli-Q grade. HA (˜1 MDa), collagen types I (rat), II (chicken), III (human), and IV (mouse), elastin (bovine), deuterium oxide (D2O), acetic acid-d4, sodium acetate-d3, 3-(Trimethylsilyl)propionic-2,2,3,3-d6 (DSS-D6) acid sodium salt, and 2,2,2-trifluoroethanol (TFE) and were obtained from Sigma-Aldrich (St. Louis, MO). Streptavidin (Alexa Fluor 488 conjugate) and Geltrex were obtained from Thermo Fisher Scientific Inc. (Waltham, MA). […]
(§3) Hyaluronic acid, collagens I, II, III, and IV, elastin, and Geltrex were coated onto 96-well black plates (medium binding affinity) at 10 μg/cm^2 and were dried in milli-Q water at room temperature. […] The plates were read with a fluorescence microplate reader for fluorescence intensity (Ex 490 nm, Em 525 nm). All data were normalized to the background fluorescence intensity of Streptavidin-488.

[2] = target: T2, collagen type II (Gallus gallus, UniProt P02460); test: ECM specificity binding test, collagen type II coating; set-up: species or system chicken; settings: 5.0 mg/ml peptide, FIG. 4
T2 construct: purchased Sigma-Aldrich
Procedure: as §1, §2, §3

[3] = target: T3, collagen type III (Homo sapiens, UniProt P02461); test: ECM specificity binding test, collagen type III coating; settings: 5.0 mg/ml peptide, FIG. 4
T3 construct: purchased Sigma-Aldrich
T3 sequence (P02461 154-1221 limits assumed): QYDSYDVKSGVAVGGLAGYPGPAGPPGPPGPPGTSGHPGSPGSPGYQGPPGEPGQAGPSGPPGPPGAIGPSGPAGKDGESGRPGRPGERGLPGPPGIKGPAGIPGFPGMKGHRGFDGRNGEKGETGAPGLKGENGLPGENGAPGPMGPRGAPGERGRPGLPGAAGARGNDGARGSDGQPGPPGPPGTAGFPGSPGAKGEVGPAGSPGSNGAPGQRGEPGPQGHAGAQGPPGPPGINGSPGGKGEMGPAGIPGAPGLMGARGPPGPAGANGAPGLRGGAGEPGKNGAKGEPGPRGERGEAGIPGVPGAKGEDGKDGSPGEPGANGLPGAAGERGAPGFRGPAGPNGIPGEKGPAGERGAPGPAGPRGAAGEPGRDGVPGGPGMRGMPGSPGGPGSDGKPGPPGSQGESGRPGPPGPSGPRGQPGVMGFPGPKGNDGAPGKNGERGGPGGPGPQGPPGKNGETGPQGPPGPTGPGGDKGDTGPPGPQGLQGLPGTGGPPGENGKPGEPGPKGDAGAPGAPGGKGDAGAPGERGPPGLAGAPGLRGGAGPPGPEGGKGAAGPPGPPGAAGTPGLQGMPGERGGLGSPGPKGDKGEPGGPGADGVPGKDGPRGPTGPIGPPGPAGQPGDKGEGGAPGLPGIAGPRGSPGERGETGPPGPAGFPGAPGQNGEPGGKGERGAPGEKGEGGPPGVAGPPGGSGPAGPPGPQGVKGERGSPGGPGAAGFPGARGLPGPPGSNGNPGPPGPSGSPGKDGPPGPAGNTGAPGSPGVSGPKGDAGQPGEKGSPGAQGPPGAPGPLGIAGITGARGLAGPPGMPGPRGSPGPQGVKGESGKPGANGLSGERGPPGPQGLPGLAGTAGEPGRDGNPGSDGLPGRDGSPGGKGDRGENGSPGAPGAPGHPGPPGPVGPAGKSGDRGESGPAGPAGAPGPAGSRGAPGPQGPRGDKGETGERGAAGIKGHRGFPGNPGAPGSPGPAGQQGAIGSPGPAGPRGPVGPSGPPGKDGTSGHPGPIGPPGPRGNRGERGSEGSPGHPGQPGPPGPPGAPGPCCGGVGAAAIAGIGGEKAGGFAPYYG
Procedure: as §1, §2, §3

[4] = target: T4, elastin (Bos taurus, UniProt P04985); test: ECM specificity binding test, elastin coating; set-up: species or system bovine; settings: 5.0 mg/ml peptide, FIG. 4
T4 construct: purchased Sigma-Aldrich
T4 sequence (P04985 27-747): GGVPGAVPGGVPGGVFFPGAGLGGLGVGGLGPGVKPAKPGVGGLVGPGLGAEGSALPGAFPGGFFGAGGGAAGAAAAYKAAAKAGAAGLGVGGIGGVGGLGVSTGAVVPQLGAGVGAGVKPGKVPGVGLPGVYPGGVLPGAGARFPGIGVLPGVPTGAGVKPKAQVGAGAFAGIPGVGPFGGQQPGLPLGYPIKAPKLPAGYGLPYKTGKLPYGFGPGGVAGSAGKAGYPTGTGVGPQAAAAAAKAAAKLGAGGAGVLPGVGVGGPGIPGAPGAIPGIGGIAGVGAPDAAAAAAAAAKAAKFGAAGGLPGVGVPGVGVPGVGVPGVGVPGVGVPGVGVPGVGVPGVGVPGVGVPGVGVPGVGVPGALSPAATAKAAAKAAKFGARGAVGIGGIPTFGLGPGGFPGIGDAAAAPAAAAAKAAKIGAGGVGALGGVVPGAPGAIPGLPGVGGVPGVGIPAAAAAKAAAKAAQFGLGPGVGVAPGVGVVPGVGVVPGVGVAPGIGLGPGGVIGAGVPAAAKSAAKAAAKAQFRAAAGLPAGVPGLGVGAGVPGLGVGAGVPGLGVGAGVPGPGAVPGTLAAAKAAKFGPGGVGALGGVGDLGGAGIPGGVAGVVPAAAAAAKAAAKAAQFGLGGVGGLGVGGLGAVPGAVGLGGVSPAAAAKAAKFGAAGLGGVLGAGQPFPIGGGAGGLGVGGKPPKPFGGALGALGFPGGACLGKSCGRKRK
Procedure: as §1
Biotinylated peptides were custom synthesized by ABI Scientific, Inc. (Sterling, VA). Uranyl acetate and TEM grids were from Ted Pella, Inc (Redding, CA). Unless specified otherwise, all water used in these experiments was Milli-Q grade. HA (˜1 MDa), collagen types I (rat), II (chicken), III (human), and IV (mouse), elastin (bovine), deuterium oxide (D2O), acetic acid-d4, sodium acetate-d3, 3-(Trimethylsilyl)propionic-2,2,3,3-d6 (DSS-D6) acid sodium salt, and 2,2,2-trifluoroethanol (TFE) and were obtained from Sigma-Aldrich (St. Louis, MO). Streptavidin (Alexa Fluor 488 conjugate) and Geltrex were obtained from Thermo Fisher Scientific Inc. (Waltham, MA). Sodium hyaluronate (5 and 60 KDa) was purchased from Lifecore Biomedical LLC (Chaska, MN). In reference to terminology, N and C termini is used to describe the amino terminal (N) and the carboxyl terminal (C) of the peptide. The biotinylated peptides are used in every experiment.
(§4) Hyaluronic acid, collagens I, II, III, and IV, elastin, and Geltrex were coated onto 96-well black plates (medium binding affinity) at 10 μg/cm^2 and were dried in milli-Q water at room temperature. N-termini biotinylated peptides were added to coated plates at 0, 1, 2.5, 5 and 10 mg/ml overnight at 37° C. in phosphate buffered saline (PBS), pH 7.4, after which the plates were washed three times with PBS. Fluorescent streptavidin-488 (4 μg/mL) was added to each well and incubated at 37° C. temperature for 24 hours, then thoroughly washed with PBS. The plates were read with a fluorescence microplate reader for fluorescence intensity (Ex 490 nm, Em 525 nm). All data were normalized to the background fluorescence intensity of Streptavidin-488.

[5] = tested on: extracellular matrix (ECM) components: Collagen type I, II, III and IV, elastin, hyaluronic acid and Geltrex; test: ECM specificity binding test, whole panel; settings: 5.0 mg/ml peptide, FIG. 4
[6] = Circular dichroism (CD) of peptides; type: physicochemical; settings: 20 mM Sodium Cacodylate; for Ellipticity ratio (222 nm/208 nm) / Ellipticity 208 nm / Ellipticity 222 nm: 1.25 mg/mL; for Ellipticity 208 nm / Ellipticity 222 nm: CD data given as [θ]M×10^−3; for wavelength Minimum of CD profile: 5.0 mg/mL
[7] = Transmission electron microscopy (TEM) of peptide nanostructures; type: physicochemical; settings: for TEM characterization, Phosphate Buffered Saline (i): PBS pH 7.4, 0.5% w/v, 30 minutes sonication, 24 hrs at 37° C.
Procedure: The sample and stain were filter-dried in between steps. Samples were collected 24 hours at 37° C. after 30 minutes of sonication. All TEM was performed on a Philips FEI Technai Spirit G2 electron microscope. Peptides were incubated in both PBS and SC.

[8] = Concentration-dependent peptide binding to hyaluronic acid coating (biotin-streptavidin fluorescence)
Procedure, shortened: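 N-terminally biotinylated peptides at 0, 1, 2.5, 5 and 10 mg/ml were incubated overnight at 37 °C in PBS, pH 7.4, on dried hyaluronic acid coatings (10 μg/cm^2), then washed three times in PBS. Groups compared with scrambled control by ANOVA with Tukey post-hoc, n=4.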

[9] = ECM specificity binding test, hyaluronic acid coating; settings: 5.0 mg/ml peptide, FIG. 4
Procedure: as §1, §4

[10] = target: T5, collagen type IV (Mus musculus, UniProt P02463+P08122); test: ECM specificity binding test, collagen type IV coating; settings: 5.0 mg/ml peptide, FIG. 4
T5 construct: purchased Sigma-Aldrich
Procedure: as §1, §2, §3

[11] = tested on: Geltrex; test: ECM specificity binding test, Geltrex coating; settings: 5.0 mg/ml peptide, FIG. 4
Procedure: as §1, §2, §3

[12] = target: T6, elastin (bovine) (bovine, UniProt P04985 27-747, limits assumed); test: plate assay: biotinylated peptide (5.0 mg/ml) on dried ECM coating, streptavidin-488 fluorescence
T6 construct: Coated and dried on plates at 10 ug/cm2
T6 sequence (looked up): T4 sequence (P04985 27-747)
Procedure: as §1, with “pig/cm²)” for “pig/cm^2)”
as §4, with “N-termini” for “Hyaluronic acid, collagens I, II, III, and IV, elastin, and Geltrex were coated onto 96-well black plates (medium binding affinity) at 10 μg/cm^2 and were dried in milli-Q water at room temperature. N-termini”

[13] = target: T7, collagen type III (human) (human, UniProt P02461 154-1221); test: as above
T7 construct: III (human)'; Coated and dried on plates at 10 ug/cm2; also called collagen III
T7 sequence (looked up): T3 sequence (P02461 154-1221 limits assumed)
Procedure: as §1, with “pig/cm²)” for “pig/cm^2)”
as §4, with “N-termini” for “Hyaluronic acid, collagens I, II, III, and IV, elastin, and Geltrex were coated onto 96-well black plates (medium binding affinity) at 10 μg/cm^2 and were dried in milli-Q water at room temperature. N-termini”

T2 sequence (P02460 whole entry): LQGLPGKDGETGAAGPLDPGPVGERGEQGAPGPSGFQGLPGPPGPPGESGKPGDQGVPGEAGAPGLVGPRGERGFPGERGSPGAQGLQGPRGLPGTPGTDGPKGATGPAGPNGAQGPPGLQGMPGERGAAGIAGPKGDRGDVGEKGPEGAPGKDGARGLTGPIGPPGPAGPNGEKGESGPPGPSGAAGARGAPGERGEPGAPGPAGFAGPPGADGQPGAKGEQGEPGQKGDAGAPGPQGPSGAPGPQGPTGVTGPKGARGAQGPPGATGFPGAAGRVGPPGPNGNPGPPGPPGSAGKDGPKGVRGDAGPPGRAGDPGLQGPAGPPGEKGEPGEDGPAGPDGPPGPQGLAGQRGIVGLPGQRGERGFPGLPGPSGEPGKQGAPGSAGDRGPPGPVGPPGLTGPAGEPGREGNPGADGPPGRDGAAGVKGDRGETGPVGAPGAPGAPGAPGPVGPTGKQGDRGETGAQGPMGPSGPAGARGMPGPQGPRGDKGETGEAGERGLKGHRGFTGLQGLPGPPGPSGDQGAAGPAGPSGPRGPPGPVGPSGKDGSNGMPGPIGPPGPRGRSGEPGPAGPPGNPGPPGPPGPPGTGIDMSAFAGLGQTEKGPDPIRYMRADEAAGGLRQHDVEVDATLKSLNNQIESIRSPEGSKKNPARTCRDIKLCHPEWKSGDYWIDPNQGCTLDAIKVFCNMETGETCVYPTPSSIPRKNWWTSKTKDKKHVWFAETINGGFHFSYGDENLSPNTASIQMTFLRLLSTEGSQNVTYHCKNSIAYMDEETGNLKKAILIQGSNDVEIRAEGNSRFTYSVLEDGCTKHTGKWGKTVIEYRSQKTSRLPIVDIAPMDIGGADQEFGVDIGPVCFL
T1 sequence (P02454 152-1207 limits assumed): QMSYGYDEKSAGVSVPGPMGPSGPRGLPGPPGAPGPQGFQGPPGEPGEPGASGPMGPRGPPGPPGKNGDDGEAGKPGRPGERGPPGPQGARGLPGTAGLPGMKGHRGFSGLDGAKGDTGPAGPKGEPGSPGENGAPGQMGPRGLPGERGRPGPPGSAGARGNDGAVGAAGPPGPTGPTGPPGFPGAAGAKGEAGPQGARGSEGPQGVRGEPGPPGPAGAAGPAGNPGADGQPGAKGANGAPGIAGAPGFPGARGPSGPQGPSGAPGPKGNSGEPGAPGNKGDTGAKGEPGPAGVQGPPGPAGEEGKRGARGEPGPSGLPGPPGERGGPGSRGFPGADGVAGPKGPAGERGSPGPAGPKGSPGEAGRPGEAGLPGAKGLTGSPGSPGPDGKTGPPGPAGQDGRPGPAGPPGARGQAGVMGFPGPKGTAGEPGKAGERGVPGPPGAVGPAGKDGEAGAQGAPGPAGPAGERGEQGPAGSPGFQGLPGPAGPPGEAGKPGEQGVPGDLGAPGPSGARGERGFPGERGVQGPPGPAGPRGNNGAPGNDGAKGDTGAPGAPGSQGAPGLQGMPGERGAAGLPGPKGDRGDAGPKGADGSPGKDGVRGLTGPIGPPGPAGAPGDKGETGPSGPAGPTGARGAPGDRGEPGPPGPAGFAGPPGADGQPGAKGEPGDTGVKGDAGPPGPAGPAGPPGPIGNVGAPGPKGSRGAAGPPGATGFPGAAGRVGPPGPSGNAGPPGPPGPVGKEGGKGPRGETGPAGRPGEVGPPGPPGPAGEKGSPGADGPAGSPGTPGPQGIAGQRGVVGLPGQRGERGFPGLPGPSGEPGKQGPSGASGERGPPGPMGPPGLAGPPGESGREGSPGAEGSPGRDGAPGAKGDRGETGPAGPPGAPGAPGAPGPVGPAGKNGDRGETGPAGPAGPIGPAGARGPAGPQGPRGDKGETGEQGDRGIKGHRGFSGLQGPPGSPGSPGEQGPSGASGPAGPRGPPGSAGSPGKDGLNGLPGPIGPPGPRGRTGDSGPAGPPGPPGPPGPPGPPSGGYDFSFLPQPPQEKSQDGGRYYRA
T1 sequence (P02466 86-1125 limits assumed): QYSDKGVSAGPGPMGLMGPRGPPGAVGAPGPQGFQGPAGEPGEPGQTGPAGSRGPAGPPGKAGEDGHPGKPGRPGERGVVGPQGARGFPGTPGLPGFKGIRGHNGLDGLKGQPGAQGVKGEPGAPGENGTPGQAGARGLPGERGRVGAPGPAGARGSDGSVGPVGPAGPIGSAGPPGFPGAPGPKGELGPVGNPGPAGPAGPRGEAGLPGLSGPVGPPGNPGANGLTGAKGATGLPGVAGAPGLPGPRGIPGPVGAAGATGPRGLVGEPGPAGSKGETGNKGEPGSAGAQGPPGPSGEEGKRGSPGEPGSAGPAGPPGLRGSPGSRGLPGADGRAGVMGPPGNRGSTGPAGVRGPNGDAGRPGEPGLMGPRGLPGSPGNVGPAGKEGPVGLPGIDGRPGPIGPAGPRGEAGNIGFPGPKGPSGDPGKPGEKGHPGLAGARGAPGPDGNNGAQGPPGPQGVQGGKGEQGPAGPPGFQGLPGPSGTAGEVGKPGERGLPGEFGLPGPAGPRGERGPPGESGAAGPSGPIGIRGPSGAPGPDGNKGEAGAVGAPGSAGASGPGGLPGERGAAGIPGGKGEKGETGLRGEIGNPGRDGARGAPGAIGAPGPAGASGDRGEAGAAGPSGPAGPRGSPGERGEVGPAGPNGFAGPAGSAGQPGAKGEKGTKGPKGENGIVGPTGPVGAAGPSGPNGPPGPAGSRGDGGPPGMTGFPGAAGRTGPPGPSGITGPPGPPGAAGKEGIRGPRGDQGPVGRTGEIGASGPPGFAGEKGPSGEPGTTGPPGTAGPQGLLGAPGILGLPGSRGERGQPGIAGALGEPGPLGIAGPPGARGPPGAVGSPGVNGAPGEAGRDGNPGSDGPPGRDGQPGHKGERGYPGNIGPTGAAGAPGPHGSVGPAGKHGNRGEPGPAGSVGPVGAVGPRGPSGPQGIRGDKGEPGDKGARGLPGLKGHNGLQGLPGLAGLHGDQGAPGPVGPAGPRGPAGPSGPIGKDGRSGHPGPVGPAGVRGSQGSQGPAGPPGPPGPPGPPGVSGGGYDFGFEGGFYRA

Molecule	binding to collagen type II [2]	binding to elastin [4]	Ellipticity ratio (222 nm/208 nm) [6]	Ellipticity 208 nm [6]	Ellipticity 222 nm [6]	wavelength Minimum of CD profile [6] [nm]	wavelength Minimum of CD profile ([6]; 20% TFE) [nm]	TEM characterization, Phosphate Buffered Saline (i) [7]	further results
TKAKIKHSVKLKAKLRIKLVKRI [Peptide 10K, five B(X7)B domains in 23 residues]	predominantly	predominantly	0.67	−113	−75.3	224	223	No structure	binding to collagen type I [1]: predominantly; binding to collagen type III [3]: predominantly; binding to the ECMs (for 17x-3: the ECMs other than hyaluronic acid) [5]: moderate binding; Ellipticity ratio (222 nm/208 nm) ([6]; 20% TFE): 0.83; Ellipticity 208 nm ([6]; 20% TFE): −235; Ellipticity 222 nm ([6]; 20% TFE): −194
TNLRNKYTFLARARANLAVRNKQNIKS [BHP4, variant of BHP3]	moderately	moderately	0.81	−107	−86.6	226	225	form fibers with many striations that form larger fibers and the larger fibers tend to form a mesh network	binding to hyaluronic acid with increasing concentrations of peptide (fluorescence intensity) ([8]; 0-10 mg/ml peptide, PBS pH 7.4, 37° C., HA coating 10 μg/cm^2, FIG. 3): increases dramatically; HA binding, overall assessment ([8]; summary and discussion statements): comparable binding; also recorded: HA specific and robust binders; binding to hyaluronic acid in specificity testing [9]: binds; binding to collagen type IV [10]: moderately; binding to Geltrex [11]: moderately; specificity of binding to ECMs [5]: lowest specificity; nanofiber formation in TEM, overall ([7]; both PBS and sodium cacodylate): consistent nanofibers; also recorded: predominantly form fibers with striations and furthermore form a mesh network
B1									binding result [12]: binds; binding result [13]: binds
